Legend:
[1] = target: T1, pDisplay-ECD2 on HEK293 cells (Homo sapiens (Human), UniProt Q99572 47-306); test: flow cytometry, live HEK293E cells expressing pDisplay-ECD2 ('HEK293E-pDisplay ED'), dAb at 5 uM, detection with anti-human IgG Fab
T1 construct: also called ECD2 as pDisplay; not shown: N-terminal HA tag of pDisplay (told for ECD1); c-Myc tag and PDGFR transmembrane anchorage of pDisplay (told for ECD1)
T1 sequence: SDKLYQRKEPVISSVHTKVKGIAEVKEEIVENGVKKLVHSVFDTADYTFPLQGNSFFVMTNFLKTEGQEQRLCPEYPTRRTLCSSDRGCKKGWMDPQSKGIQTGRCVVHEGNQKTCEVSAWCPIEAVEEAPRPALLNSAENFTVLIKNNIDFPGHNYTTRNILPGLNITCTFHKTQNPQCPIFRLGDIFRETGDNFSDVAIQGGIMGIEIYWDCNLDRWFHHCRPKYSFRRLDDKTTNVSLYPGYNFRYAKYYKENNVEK

E200 peptide [2] = target: T2, E200 peptide; test: Biacore using E200 (10RU), dAb-Fc at 100 pM to 1 nM
T2 construct: Made by solid phase synthesis at Chiron Mimotopes; Which form (free, conjugated, biotinylated) was on the chip is told only for some experiments; also called peptide antigen E200; E200-biotin peptide

[3] = target: T3, ECD2, P2X7 receptor (47-306), soluble (Homo sapiens (Human), UniProt Q99572 47-306); test: Biacore against ECD2 in either solution form or as a ECD-Fc construct; Fc format; ECD2 in solution or as ECD-Fc, form not told
T3 construct: also called soluble ECD2; ECD2 domain
T3 sequence: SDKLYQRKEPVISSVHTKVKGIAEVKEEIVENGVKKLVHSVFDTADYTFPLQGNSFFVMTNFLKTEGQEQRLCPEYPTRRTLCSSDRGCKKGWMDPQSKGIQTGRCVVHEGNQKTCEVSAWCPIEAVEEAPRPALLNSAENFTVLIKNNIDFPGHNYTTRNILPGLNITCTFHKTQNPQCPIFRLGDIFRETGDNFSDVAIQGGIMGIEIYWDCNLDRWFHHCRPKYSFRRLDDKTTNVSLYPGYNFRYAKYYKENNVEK

E200 peptide [4] = target: T2, E200 peptide; test: Biacore using E200, dAb-Fc
[5] = target: T3, ECD2, P2X7 receptor (47-306), soluble; test: Biacore against ECD2 in either solution form or as a ECD-Fc construct; Fc construct
[6] = target: T3, ECD2, P2X7 receptor (47-306), soluble; test: Biacore against ECD2 in either solution form or as a ECD-Fc construct; Fc format taken from context
[7] = target: T3, ECD2, P2X7 receptor (47-306), soluble; test: Biacore, labelled dAb domain at 10 and 5 nM; target taken as ECD2 from the paragraph before; Alexa488-labelled dAb domain, different parent
[8] = target: T3, ECD2, P2X7 receptor (47-306), soluble; test: Biacore, labelled dAb domain at 5 and 2.5 nM; target taken as ECD2 from the sentence before; Alexa488-labelled dAb domain
E200 peptide [9] = target: T2, E200 peptide; test: Biacore, E200 peptide
[10] = target: T3, ECD2, P2X7 receptor (47-306), soluble; test: Biacore, dAb domain without Fc; dAb domain, no Fc format
[11] = target: T3, ECD2, P2X7 receptor (47-306), soluble; test: single domain format; method not given

B1: 2.4 (other)
VH single domain (dAb): EVQLLESGGGLVQPGGSLRLTCAASGFSFRNHDMGWVRQAPGKGLEWVSAISGSGGSTYYADSVKGRFTISRDNSKNTLYLQMNSLRAEDTAVYYCAEPKPMDTEFDYRSPGTLVTVSS
notes: Read as PEP2-2-4, in line with '2' = PEP2-2 and '47.1' = PEP2-47-1; it is not PEP2-4; also called PEP2-2-4; PEP2-2-4 dAb
binding result [1]: binds

B2: PEP2-2-3 Fc (Fc fusion)
chain: EVQLLESGGGLVQPGGSLRLSCAASGFTFRNHDMGWVRQAPGKGLEWVSAISGSGGSTYYADSVKGRFTISRDNSKNTLYLQMNSLRAEDTAVYYCAEPKPMDTEFDYWSPGTLVTVSS
notes: Standard format dAb-Fc with human type IgG1 Fc subtype; also called 2-2-3 (PEP-Fc); not shown: human IgG1 Fc
Kd (E200 peptide [2]): 0.13 nM
Kd [3]: 1.5 nM

B3: PEP2-2-1-1 Fc (Fc fusion)
chain: EVQLLESGGGLVQPGGSLRLSCAASGFTFRNHDMGWVRQAPGKGLEWVSAISGSGGSTYYADSVKGRFTISRDNSKNTLYLQMNSLRAEDTAVYYCAEPKPMDTEFDYRSPGTLVTVSS
notes: Standard format dAb-Fc with human type IgG1 Fc subtype; also called 2-2-1-1 (PEP-Fc); not shown: human IgG1 Fc
Kd (E200 peptide [4]): 0.09 nM

B4: PEP2-2-2 Fc (Fc fusion)
chain: EVQLLESGGGLVQPGGSLRLSCAASGFTFRNHDMGWVRQAPGKGLEWVSAISGSGGSTYYADSVKGRFTISRDNSKNTLYLQMNSLRAEDTAVYYCAEPKPMDTEFDYRSQGTLVTVSS
notes: Standard format dAb-Fc with human type IgG1 Fc subtype; also called 2-2-2 (PEP-Fc); not shown: human IgG1 Fc
Kd (E200 peptide [4]): 0.1 nM

B5: PEP2-247-2 Fc (Fc fusion)
chain: EVQLLESGGGLVQPGGSLRLSCAASGFTFRNHDMGWVRQAPGKGLEWVSAISGSGGSTYYANSVKGRFTISRDNSKNTLYLQMNSLRAEDTAVYYCAEPSHFDRPFDYRSQGTLVTVSS
notes: Standard format dAb-Fc with human type IgG1 Fc subtype; also called 2-247-2 (PEP-Fc); 2-2-1/2-47-1 CDR crossover; not shown: human IgG1 Fc
Kd (E200 peptide [4]): 0.45 nM

B6: PEP2-247-1 Fc (Fc fusion)
chain: EVQLLESGGGLVQPGGSLRLSCAASGFTFRNHDMGWVRQAPGKGLEWVSAISGSGGGTYYADSVKGRFTISRDNSKNTLYLQMNSLRAEDTAVYYCAEPSHFDRPFDYRSQGTLVTVSS
notes: Standard format dAb-Fc with human type IgG1 Fc subtype; also called 2-247-1 (PEP-Fc); 2-2/2-47-1 CDR crossover; not shown: human IgG1 Fc
Kd (E200 peptide [4]): 0.19 nM

B7: 47.1 (other)
VH single domain (dAb): EVQLLESGGGLVQPGGSLRLSCAASGYTFPMKDMGWVRQAPGKGLEWVSAISGSGGGTYYADSVKGRFTISRDNSKNTLYLQMNSLRAEDTAVYYCAEPSHFDRPFDYRSQGTLVTVSS
notes: also called PEP2-47-1; PEP2-47-1 dAb
binding result [1]: binds

B8: PEP2-2-1 Fc (Fc fusion)
chain: EVQLLESGGGLVQPGGSLRLSCAASGFTFRNHDMGWVRQAPGKGLEWVSAISGSGGSTYYANSVKGRFTISRDNSKNTLYLQMNSLRAEDTAVYYCAEPKPMDTEFDYRSPGTLVTVSS
notes: Standard format dAb-Fc with human type IgG1 Fc subtype; also called PEP2-2-1 dAb-FC; not shown: human IgG1 Fc
Kd [5]: 0.56 nM

B9: PEP2-472-1 Fc (Fc fusion)
chain: EVQLLESGGGLVQPGGSLRLSCAASGYTFPMKDMGWVRQAPGKGLEWVSAISGSGGGTYYADSVKGRFTISRDNSKNTLYLQMNSLRAEDTAVYYCAEPKPMDTEFDYRSQGTLVTVSS
notes: Standard format dAb-Fc with human type IgG1 Fc subtype; also called 2-47-1/2-2-2 CDR crossover; not shown: human IgG1 Fc
Kd [6]: 0.584 nM
Kd (E200 peptide [4]): 0.09 nM

B10: PEP2-472-12Alexa488 domain (other)
VH: EVQLLESGGGLVQPGGSLRLSCAASGYTFPMKDMGWVRQAPGKGLEWVSAISGSGGGTYYADSVKGRFTISRDNSKNTLYLQMNSLRAEDTAVYYCAEPKPMDTEFDYRSPGTLVTVSS
modifications: Alexa488 label attached (site not stated)
notes: Human VH dAb domain, labelled
Kd [7]: 0.156 nM

B11: PEP2-2-12Alexa488 domain (other)
VH: EVQLLESGGGLVQPGGSLRLSCAASGFTFRNHDMGWVRQAPGKGLEWVSAISGSGGSTYYANSVKGRFTISRDNSKNTLYLQMNSLRAEDTAVYYCAEPKPMDTEFDYPSPGTLVTVSS
modifications: Alexa488 label attached (site not stated)
notes: Human VH dAb domain, labelled; also called PEP2-2-12 with Alexa488 label
Kd [8]: 0.174 nM

B12: PEP2-2-3 dAb (other)
VH: EVQLLESGGGLVQPGGSLRLSCAASGFTFRNHDMGWVRQAPGKGLEWVSAISGSGGSTYYADSVKGRFTISRDNSKNTLYLQMNSLRAEDTAVYYCAEPKPMDTEFDYWSPGTLVTVSS
notes: Human VH dAb, unformatted; also called unformatted dAb PEP2-2-3
Kd (E200 peptide [9]): 7 nM

B13: PEP2-2-12 dAb domain (other)
VH: EVQLLESGGGLVQPGGSLRLSCAASGFTFRNHDMGWVRQAPGKGLEWVSAISGSGGSTYYANSVKGRFTISRDNSKNTLYLQMNSLRAEDTAVYYCAEPKPMDTEFDYPSPGTLVTVSS
notes: Human VH dAb domain, no Fc format
Kd [10]: 0.945 nM

B14: PEP2-47 dAb (other)
VH: EVQLLESGGGLVQPGGSLRLSCAASGFTFPMKDMGWVRQAPGKGLEWVSAISGSGGSTYYADSVKGRFTISRDNSKNTLYLQMNSLRAEDTAVYYCAEPSHFDRPFDYWGQGTLVTVSS
notes: Human VH dAb, unformatted
binding result [11]: binds

B15: 2.5 (other)
VH single domain (dAb): EVQLLESGGGLVQPGGSLRLSCAASGFTFRNHDMGWVRQAPGKGLEWVSAISGSGGSTYYADSVKGRFTISRDDSKNTLYLQMNSLRAEDTAVYYCAEPKPMDTEFDYRSPGTLVTVSS
notes: Read as PEP2-2-5; it is not PEP2-5; also called PEP2-2-5; PEP2-2-5 dAb
binding result [1]: binds

B16: 42.2 (other)
VH single domain (dAb): EVQMLESGGGLVQPGESLRLSCAASGFTFDNVEMSWVRQAPGKGLEWVSSIGSKGEYTYYADSVKGRFTISRDNSKNTLYLQMNSPRAEDTAVYYCAQTVNVPEPAFAYWGQGTLVTVSS
notes: also called PEP2-42-2; PEP2-42-2 dAb
binding result [1]: binds

B17: PEP2-42 Fc (Fc fusion)
chain: EVQLLESGGGLVQPGGSLRLSCAASGFTFDNVEMSWVRQAPGKGLEWVSSIGSKGEDTYYADSVKGRFTISRDNSKNTLYLQMNSLRAEDTAVYYCAQTVNVPEPAFAYWGQGTLVTVSS
notes: Standard format dAb-Fc with human type IgG1 Fc subtype; also called 2-42 (PEP-Fc); not shown: human IgG1 Fc
Kd (E200 peptide [4]): 5.5 nM

B18: PEP2-47 Fc (Fc fusion)
chain: EVQLLESGGGLVQPGGSLRLSCAASGFTFPMKDMGWVRQAPGKGLEWVSAISGSGGSTYYADSVKGRFTISRDNSKNTLYLQMNSLRAEDTAVYYCAEPSHFDRPFDYWGQGTLVTVSS
notes: Standard format dAb-Fc with human type IgG1 Fc subtype; also called 2-47 (PEP-Fc); not shown: human IgG1 Fc
Kd (E200 peptide [4]): 7.5 nM

B19: PEP2-47-1 Fc (Fc fusion)
chain: EVQLLESGGGLVQPGGSLRLSCAASGYTFPMKDMGWVRQAPGKGLEWVSAISGSGGGTYYADSVKGRFTISRDNSKNTLYLQMNSLRAEDTAVYYCAEPSHFDRPFDYRSQGTLVTVSS
notes: Standard format dAb-Fc with human type IgG1 Fc subtype; also called 2-47-1 (PEP-Fc); not shown: human IgG1 Fc
Kd (E200 peptide [4]): 0.11 nM
